Data published in article PMC4634304, “Evidence-Based Structural Model of the Staphylococcal Repressor Protein: Separation of Functions into Different Domains”.

What was measured:
[1] = biological target: Φ11 dUTPase, dUTPase enzyme from the Φ11 Staphylococcal phage (Staphylococcal phage Φ11)
[2] = biological target: Φ11 dUTPase, dUTPase enzyme from the Φ11 Staphylococcal phage (Staphylococcal phage Φ11); assay: inhibition of enzyme activity (steady-state dUTPase kinetics); 20 nM Φ11 dUTPase, 1 mM HEPES-HCl pH 7.5, 5 mM MgCl2, 150 mM KCl, phenol red, 293 K; the two proteins preincubated 5 min; quadratic binding equation fitted; apparent Ki
[3] = biological target: Φ11 dUTPase, dUTPase enzyme from the Φ11 Staphylococcal phage (Staphylococcal phage Φ11); remark: listed apart in the source
[4] = biological target: Stl (SaPIbov1 repressor), wild type (Staphylococcus aureus pathogenicity …, UniProt Q9F0J8); assay: EMSA; shift at 1 uM Stl (monomer); conditions: protein: recombinant; tags: N-terminal GST removed by thrombin (pGEX-4T-1); chain copies: 2; label: none (GelRed stain); blunt
[5] = biological target: Stl-CTD (Staphylococcus aureus pathogenicity …, UniProt Q9F0J8 85-267); assay: EMSA; no shift at 2-30 uM Stl-CTD (monomer); conditions: protein: recombinant; tags: N-terminal GST removed by thrombin (pGEX-4T-1); label: none (GelRed stain); blunt

Stl-CTD, carboxy-terminal domain of the SaPIbov1 pathogenicity island repressor Stl (domain or fragment)
maximum inhibition of Φ11 dUTPase activity at saturating Stl-CTD concentration [1]: 40% | Ki [2]: 1.5 nM

Stl-Q40A,N41A double mutant of the SaPIbov1 repressor Stl (natural protein)
Ki [2]: 1.4 nM | maximal inhibition of Φ11 dUTPase activity by Stl-AA [3]: > 90%

B1: 57mer Stl-binding dsDNA (dsDNA)
DNA 1: GCTCATATTATTCCTCTCCTACCATTTTATCTCTAATTGAGATATTTATATTCAGAT
DNA 2: ATCTGAATATAAATATCTCAATTAGAGATAAAATGGTAGGAGAGGAATAATATGAGC
binding result [4]: binds | binding result [5]: no binding
